B1: MBP-PICK1 fusion protein (natural protein, human, UniProt Q9NRD5 1-415, looked up)
chain: MFADLDYDIEEDKLGIPTVPGKVTLQKDAQNLIGISIGGGAQYCPCLYIVQVFDNTPAALDGTVAAGDEITGVNGRSIKGKTKVEVAKMIQEVKGEVTIHYNKLQADPKQGMSLDIVLKKVKHRLVENMSSGTADALGLSRAILCNDGLVKRLEELERTAELYKGMTEHTKNLLRAFYELSQTHRAFGDVFSVIGVREPQPAASEAFVKFADAHRSIEKFGIRLLKTIKPMLTDLNTYLNKAIPDTRLTIKKYLDVKFEYLSYCLKVKEMDDEEYSCIALGEPLYRVSTGNYEYRLILRCRQEARARFSQMRKDVLEKMELLDQKHVQDIVFQLQRLVSTMSKYYNDCYAVLRDADVFPIEVDLAHTTLAYGLNQEEFTDGEEEEEEEDTAAGEPSRDTRGAAGPLDKGGSWCDS

What was measured:
[1] = target: the molecule itself; test: SAXS
[2] = target: MBP-PDZ (PDZ domain of PICK1 fused to MBP) (human, UniProt Q9NRD5 22-105); test: ITC

Binder | stoichiometry N [1] | Kd [2]
B1 | 2 | –
RHWLKV [DAT C-terminal tail peptide (6 aa)] | – | ~1900 nM

From publication PMC4454178 (Molecular Biology of the Cell, 2015)
